# US20110217318A1 (MOCHIDA PHARMACEUTICAL, published 2011)
# Substitutions are numbered along the chain they refer to.
# B1: F1249-18-2 (antibody, V domains shown)
# VH: QVQLQQPGAELVKPGASVKLSCKASGYTFTSYWMHWLKQRPGQGLEWIGMIHPNSDITNYNEKFKNKATLTVDKSSSTAYMQLSSLTSEDSAVYYCARSGDYYAMDYWGQGTSVTVSS
# VL: SIVMTQTPKFLLVSAGDRVTITCKASQSVSNDVAWYQQKPGQSPKLLIYYASNRYTGVPDRFTGSGYGTDFTFTISTVQAEDLAVYFCQQDYSSPPTFGGGTKLEIKR
# notes: mouse hybridoma monoclonal antibody
# B2: F1245-6-2 (antibody, V domains shown)
# VH: QVQLQQPGAELVKPGASVKLSCKASGYTFTSYWMHWVKQRPGQGLEWIGMIHPNSGSTNYNEKFKSKATLTVDKSSSTAYMQLSSLTSEDSAVYYCARGGVTPVAYWGQGTLVTVSA
# VL: B1 VL with D60Y, P96W
# notes: as for B1
# B3: F1245-5-1 (antibody, V domains shown)
# VH: B2 VH with T30I, N59H
# VL: B1 VL with P96W
# notes: as for B1
# B4: F1245-4-1 (antibody, V domains shown)
# VH: QVQLQQPGAELVKPGASVKLSCKASGCTFTSYWMHWVKQRPGQGLEWIGMIHPNSDNTNYNEKFKSKATLTVDKSSSTAYMHLSSLTSEDSAVYYCATHYYDYVDYWGQGTTLTVSS
# VL: B1 VL with S1N, P96W
# notes: as for B1
# B5: F1249-5-1 (antibody, V domains shown)
# VH: B1 VH with D73A, S99L
# VL: B1 VL with A34T
# notes: as for B1
# B6: F1251-1-1 (antibody, V domains shown)
# VH: QVNLLQSGAALVKPGASVKLSCKASGYTFTDYYIHWVKQSHGKSLEWIGYINPNSGYTNYNEKFKSKATLTVDKSTNTAYMELSRLTSEDSATYYCTRCNSGYGDWFAYWGQGTLLTVSS
# VL: DIQMTQSPPVLSASVGDRVTLSCKASQNINKNLDWYQQKHGEAPKLLIYYTNNLQTDIPSRFSGSGSGTDYTLTISSLQPEDVATFYCYQYNSGPGTFGAGTKLELKR
# notes: rat hybridoma monoclonal antibody
# B7: humanized F1232-37-2: Eu-HC with REI-KA (antibody, human IgG4, V domains shown)
# VH: QVQLVQSGAEVKKPGSSVKVSCKASGGTFSDYAIHWVRQAPGQGLEWIGVISIYYDDTNYNQKFKGKATITADESTNTAYMELSSLRSEDTAIYYCARRRDSSGPYAMDYWGQGTLVTVSS
# VL: DIQMTQSPSSLSASVGDRVTITCRASESVDSYGNSFMHWYQQKPGKAPKLLIYRASNLESGVPSRFSGSGSGTDFTFTISSLQPEDIATYYCQQSNEDPYTFGQGTKVEIKR
# notes: human IgG4 heavy and kappa light constant regions
# B8: humanized F1232-37-2: Eu-HC with Eu-KA (antibody, human IgG4, V domains shown)
# VH: B7 VH
# VL: B7 VL with S10T, I52M, S67I, D74E, F77L, E85D, I87F, I110V
# notes: as for B7
# B9: F1245-7-1 (antibody, V domains shown)
# VH: QVQLQQPGAELVKPGASVKLSCKASGYTFTSYWMHWVKQRPGQGLEWIGMIHPNSGSTNYNEKFKSKATLTVDKSSSTAYMQLSSLTSEDSAVYYCASPVTAVVEYYFDYWGQGTTLTVSS
# VL: SIVMTQTPKFLLVSAGDRVTITCKASQSVSNDVAWYQQKPGQSPKLLIYYASNRYTGVPDRFTGSGYGTDFTFTISTVQAEDLAVYFCQQDYSSLTFGSGTKLEIKR
# notes: as for B1
# B10: F1257-3-1 (antibody, V domains shown)
# VH: QVTLKESGPGMLQPSKTLSLTCSFSGFSLSTSGMVVSWIRQPSGKSLEWLAAIDWDGDKYYNPSLKSRLTVSKDTSNTQVFLKISSVDIADTATYYCARTPYYGYKEAYYFDYWGQGVKVTVSS
# VL: DIQMTQSPASLSASLEEIVTITCKASRAIDDYLSWYQQKPGKSPQLLIYDATSLADGVPSRFSGSRSGTQYSLKISRPQVDDSGIYYCLQSYSTPWTFGGGTKLDLKR
# notes: as for B6
# B11: F1246-1-1 (antibody, V domains shown)
# VH: EVQLVESGGDLVKPGGSLKLSCAASGFTFSSYGMSWVRQTPDKRLEWVATISNGGTYTYYPDSVKGRFTISRDNAKNTLYLQMSSLKSDDTAMYYCGRLRDYYAMDYWGQGTSVTVSS
# VL: DIVLTQSPASLAVSLGQRATISCRASESVDSYGNSFMHWYQQKPGQPPKLLIYRASNLESGIPARFSGSGSRTDFTLTINPVEADDVATYYCQQSNEDPWTFGGGTKLEIKR
# notes: as for B1
# B12: F1249-3-2 (antibody, V domains shown)
# VH: EVQLVESGGGLVKPGGSLKLSCAASGFTFSSYGMSWVRQTPDKRLEWVATISSGGSYTYYSDSVKGRFTISRDNAKNNLYLQLSSLKSQDTAIYYCARDSGYFDYWGQGTTLTVSS
# VL: B11 VL with D1N, R54L, I62V, N80D, V87A, S95N, W100R
# notes: as for B1
# B13: F1249-20-1 (antibody, V domains shown)
# VH: QVQLQQSGAELVRPGVSVKISCKGSGYTFTDYAMHWVKQSHAKSLEWIGVISTYYGDTSYNQKFKGKATMTVDKSSSTAYMELARLTSEDSAIYYCARAEDYDPWFAYWGQGTLVTVSA
# VL: B11 VL with H38Y, N96D, W100L, G104A, I110L
# notes: as for B1
# B14: F1249-24-1 (antibody, V domains shown)
# VH: B13 VH
# VL: B11 VL with N96D, W100L, G104A, I110L
# notes: as for B1
# B15: F1249-30-1 (antibody, V domains shown)
# VH: B13 VH with T69A, E89D
# VL: B11 VL with N96D, W100L, G104A, I110L
# notes: as for B1
# B16: F1249-22-1 (antibody, V domains shown)
# VH: QVQLQQPGAELVKPGASVKLSCKASGYTFTSYWMQWVKERPGQGLEWIGEIDPSDSYTNYNQKFKGKATLTVDTSSSTACMQLSSLTSEDSAVYYCARGAITTATLDYWGQGTTLTVSS
# VL: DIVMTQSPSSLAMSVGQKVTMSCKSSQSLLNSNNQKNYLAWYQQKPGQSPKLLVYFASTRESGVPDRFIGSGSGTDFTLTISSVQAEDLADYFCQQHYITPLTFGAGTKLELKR
# notes: as for B1
# B17: F1232-37-2 F(ab')2 (other)
# VH: VQLQQSGPELVRPGESVKISCKGSGYTFTDYAIHWVKLSHAKSLEWIGVISIYYDDTNYNQKFKGKATMTVDKSSSTAYLELARLTSEDSAIYYCARRRDSSGPYAMDYWGQGTSVTVSS
# VL: DIVLTQSPASLAVSLGQRATISCRASESVDSYGNSFMHWYQQKPGQPPKLLIYRASNLESGIPARFSGSGSRTDFTLTINPVEADDVATYYCQQSNEDPYTFGGGTKLEIKRADAA
# notes: F(ab')2 made from the mouse antibody with lysyl endopeptidase
# B18: F1232-37-2 Fab (Fab, V domains shown)
# VH: B17 VH
# VL: B11 VL with W100Y
# notes: Fab made from the mouse antibody with papain
# Legend:
# [1] = target: T1, human GPVI extracellular region-human Fc fusion protein (hGPVI-hFc) (human); test: SPR BIACORE 3000 as in Example 5
# T1 construct: Expressed in COS-1, purified on Protein A; also called GPVI-HHH-hFc; hGPVIHHH-hFc
# [2] = target: T1, human GPVI extracellular region-human …; test: binding to antigen of co-expressed chains; antigen construct not named
# [3] = target: T1, human GPVI extracellular region-human …; test: SPR BIACORE 3000, hGPVI-hFc on CM5 chip, 0-800 nM, bivalent analyte fit
# Experimental: (§1) Dissociation constant for F1232-37-2 (whole antibody) prepared in EXAMPLE 2, and F(ab′)2 and Fab prepared in 22-1 and 21-2 was measured with Protein Interaction Analyzer BIACORE® 3000 (BIACORE). That is, hGPVI-hFc prepared in EXAMPLE 1 was coupled to sensorchip CM5 (BIACORE) according to the manual. Then a series of dilution from 0 to 800 nM of each antibody was prepared with HBS-EP buffer (BIACORE) and analyzed with BIACORE® 3000. After completion of antibody binding, chip was regenerated with glycine buffer (pH 1.5) (BIACORE). Regarding the results of whole antibody and F(ab′)₂, evaluation software Bivalent analyte (BIACORE) was used for analysis; 1:1 Binding for Fab analysis. Then the dissociation constant was calculated. As a result, dissociation constant of F1232-37-2 F(ab′)2 and Fab was about 0.7 and 0.6, respectively, when that of whole antibody defined as one.
# [4] = target: T1, human GPVI extracellular region-human …; test: SPR BIACORE 3000, hGPVI-hFc on CM5 chip, 0-800 nM, 1:1 binding fit
# Experimental: as §1
# T1 sequence (chain, as listed by the source limits assumed): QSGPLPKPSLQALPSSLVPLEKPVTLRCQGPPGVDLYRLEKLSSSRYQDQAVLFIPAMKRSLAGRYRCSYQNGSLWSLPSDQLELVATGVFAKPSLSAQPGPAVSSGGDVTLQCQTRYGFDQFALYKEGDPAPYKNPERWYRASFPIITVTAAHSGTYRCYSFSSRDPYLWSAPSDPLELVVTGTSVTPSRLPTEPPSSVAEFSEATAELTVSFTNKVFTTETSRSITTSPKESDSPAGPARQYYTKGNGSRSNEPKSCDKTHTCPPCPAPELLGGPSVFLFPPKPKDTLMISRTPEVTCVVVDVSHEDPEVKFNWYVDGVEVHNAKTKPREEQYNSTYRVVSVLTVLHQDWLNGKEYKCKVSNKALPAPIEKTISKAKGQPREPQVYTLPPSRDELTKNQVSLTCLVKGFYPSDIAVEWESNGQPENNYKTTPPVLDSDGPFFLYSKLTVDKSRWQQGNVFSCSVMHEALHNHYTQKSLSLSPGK
Binder,KD (Relative value) [1],also measured
B1,0.00103 relative to F1232-37-2 = 1,–
B2,0.122 relative to F1232-37-2 = 1,–
B3,1.43 relative to F1232-37-2 = 1,–
B4,0.00427 relative to F1232-37-2 = 1,–
B5,0.00285 relative to F1232-37-2 = 1,–
B6,7.9 relative to F1232-37-2 = 1,–
B7,–,binding result [2]: binds
B8,–,binding result [2]: binds
B9,0.00293 relative to F1232-37-2 = 1,–
B10,0.00298 relative to F1232-37-2 = 1,–
B11,0.884 relative to F1232-37-2 = 1,–
B12,1.59 relative to F1232-37-2 = 1,–
B13,0.00205 relative to F1232-37-2 = 1,–
B14,0.00821 relative to F1232-37-2 = 1,–
B15,0.347 relative to F1232-37-2 = 1,–
B16,2.06 relative to F1232-37-2 = 1,–
B17,–,dissociation constant relative to whole antibody [3]: ~0.7 relative to whole F1232-37-2 = 1
B18,–,dissociation constant relative to whole antibody [4]: ~0.6 relative to whole F1232-37-2 = 1
